From patent publication US10251952B2, “Humanized anti-tau(pS422) antibody brain shuttles and use thereof” (Hoffmann-La Roche Inc., priority 2014, dated 2019)
Changes are numbered by the printed parent chain. Where “and” joins values, the source holds several entries; their conditions need not be identical. Identical values can stand only once.

B1: VH14 with VL17: anti-human tau(pS422) antibody; VH SEQ ID NO: 50, VL SEQ ID NO: 37 (antibody, V domains shown)
VH: QQLVESGGGLVQPGGSLRLSCAASGFSLSSNAINWVRQAPGKGLEWVGYIAVSGNTYYASWAKGRFTISRDNSKNTLYLQMNSLRAEDTAVYYCGKSNIWGPGTLVTVSS
VL: DIQMTQSPSSLSASVGDRVTITCRSSQSVRTNKLAWFQQKPGQPPKRLIYSASTLDFGVPSRFSGSGSGTEFTLTISSLQPEDFATYYCLGYFDCSIADCVAFGGGTKVEIK
modifications: humanized sequence
B2: VH14 with VL15: anti-human tau(pS422) antibody; VH SEQ ID NO: 50, VL SEQ ID NO: 35 (antibody, V domains shown)
VH: B1 VH
VL: B1 VL with S25A, S28G, D56Q, F57S, C95S, C100S
modifications: humanized sequence
B3: VH14 with VL39: anti-human tau(pS422) antibody; VH SEQ ID NO: 50, VL SEQ ID NO: 42 (antibody, V domains shown)
VH: B1 VH
VL: B1 VL with K33R, C95P, C100P
modifications: humanized sequence
B4: VH14 with VL33: anti-human tau(pS422) antibody; VH SEQ ID NO: 50, VL SEQ ID NO: 40 (antibody, V domains shown)
VH: B1 VH
VL: B1 VL with D1A, K33R, C95S, C100I
modifications: humanized sequence
B5: VH14 with VL28: anti-human tau(pS422) antibody; VH SEQ ID NO: 50, VL SEQ ID NO: 39 (antibody, V domains shown)
VH: B1 VH
VL: AIQMTQSPSTLSASVGDRVTITCRSSQSVRTNRLAWFQQKPGKAPKRLIYSASTLDFGVPSRFSGSGSGTEFTLTISSLQPDDFATYYCLGYFDPSADPVAFGGGTKVEIK
modifications: humanized sequence
B6: VH14 with VL22: anti-human tau(pS422) antibody; VH SEQ ID NO: 50, VL SEQ ID NO: 17 (antibody, V domains shown)
VH: B1 VH
VL: B5 VL with I2Q, Q3V, T10S, K43Q, A44P, F57Y, D82E, P95S, P99I
modifications: humanized sequence
B7: VH14 with VL21: anti-human tau(pS422) antibody; VH SEQ ID NO: 50, VL SEQ ID NO: 16 (antibody, V domains shown)
VH: B1 VH
VL: B5 VL with I2Q, Q3V, T10S, R33K, K43Q, A44P, D82E, P95S, P99I
modifications: humanized sequence
B8: VH14 with VL12: anti-human tau(pS422) antibody; VH SEQ ID NO: 50, VL SEQ ID NO: 34 (antibody, V domains shown)
VH: B1 VH
VL: B1 VL with S25A, S28G, D56Q, F57S
modifications: humanized sequence
B9: VH14 with VL00: anti-human tau(pS422) antibody; VH SEQ ID NO: 50, VL SEQ ID NO: 07 (antibody, listed as Oryctolagus cuniculus, V domains shown)
VH: B1 VH
VL: AQVLTQTTSPVSAAVGSTVTISCQSSQSVRTNKLAWFQQKPGQPPKRLIYSASTLDFGVPSRFSASGSGTQFTLTISDVQCDDAATYYCLGYFDCSIADCVAFGGGTEVVVK
modifications: humanized sequence
B10: VH14 with VL09: anti-human tau(pS422) antibody; VH SEQ ID NO: 50, VL SEQ ID NO: 33 (antibody, V domains shown)
VH: B1 VH
VL: B1 VL with S10T, S25A, F37Y, Q43K, P44A, D56E, F57S, E82D
modifications: humanized sequence
B11: VH14 with VL19: anti-human tau(pS422) antibody; VH SEQ ID NO: 50, VL SEQ ID NO: 38 (antibody, V domains shown)
VH: B1 VH
VL: B1 VL with D1A, I2Q, Q3V
modifications: humanized sequence
B12: VH14 with VL01: anti-human tau(pS422) antibody; VH SEQ ID NO: 50, VL SEQ ID NO: 32 (antibody, V domains shown)
VH: B1 VH
VL: B1 VL with P8T, S10T, R24Q, Q43K, P44A, E82D
modifications: humanized sequence
B13: VH14 with VL35: anti-human tau(pS422) antibody; VH SEQ ID NO: 50, VL SEQ ID NO: 41 (antibody, V domains shown)
VH: B1 VH
VL: B1 VL with D1A, P8T, K33R, C95S, C100I
modifications: humanized sequence
B14: VH14 with VL40: anti-human tau(pS422) antibody; VH SEQ ID NO: 50, VL SEQ ID NO: 43 (antibody, V domains shown)
VH: B1 VH
VL: B5 VL with A1D, T10S, K43Q, A44P, D82E
modifications: humanized sequence
B15: VL17 with VH22: anti-human tau(pS422) antibody; VH SEQ ID NO: 54, VL SEQ ID NO: 37 (antibody, V domains shown)
VH: EVQLLESGGGLVQPGGSLRLSCAASGFSLSSNAINWVRQAPGKGLEWVGYIAVSGNTYYADSVKGRFTISRDNSKNTLYLQMNSLRAEDTAVYYCGKSNIWGQGTLVTVSS
VL: B1 VL
modifications: humanized sequence
B16: VL17 with VH18: anti-human tau(pS422) antibody; VH SEQ ID NO: 52, VL SEQ ID NO: 37 (antibody, V domains shown)
VH: B1 VH with S60D, W61S, A62V, P102Q
VL: B1 VL
modifications: humanized sequence

biological target: human tau(pS422) (Homo sapiens, UniProt P10636, S739X); assay: BIAcore kinetic screening and kinetic rates of humanized VH/VL combinations; type: binding; details: 25 °C; VH14 or VH20 with VL variants
Procedure: In the following Table characteristics of the different humanized variants of the rabbit light chain variable domain in combination with the humanized heavy chain variable domains VH14 and VH20, respectively, are shown. Binding partner was human tau(pS422).
Kinetic screening was performed according to Schraeml et al. (Schraeml, M. and M. Biehl, Methods Mol. Biol. 901 (2012) 171-181) on a BIAcore 4000 instrument, mounted with a BIAcore CM5 sensor. The BIAcore 4000 instrument was under the control of the software version V1.1. A BIAcore CM5 series S chip was mounted into the instrument and was hydrodynamically addressed and preconditioned according to the manufacturer's instructions. The instrument buffer was HBS-EP buffer (10 mM HEPES (pH 7.4), 150 mM NaCl, 1 mM EDTA, 0.05% (w/v) P20). An antibody capture system was prepared on the sensor surface. A polyclonal goat anti-human antibody with human IgG-Fc specificity (Jackson Lab.) was immobilized at 30 μg/ml in 10 mM sodium acetate buffer (pH 5) to spots 1, 2, 4 and 5 in the instrument's flow cells 1, 2, 3 and 4 at 10,000 RU using NHS/EDC chemistry. In each flow cell the antibodies were captured on spot 1 and spot 5. Spot 2 and spot 4 were used as reference spots. The sensor was deactivated with a 1 M ethanolamine solution. Humanized antibody derivatives were applied at concentrations between 44 nM and 70 nM in instrument buffer supplemented with 1 mg/ml CMD (carboxymethyldextrane). The antibodies were injected at a flow rate of 30 μl/min for 2 minutes. The capture level (CL) of the surface-presented antibodies was measured in rel. response units (RU). The analytes in solution, phosphorylated human tau protein, non-phosphorylated human tau protein and the phosphorylated human tau mutant protein T422S were injected at 300 nM for 3 minutes at a flow rate of 30 μl/minute. The dissociation was monitored for 5 minutes. The capture system was regenerated by a 1 minute injection of 10 mM glycine buffer, pH 1.7 at 30 μL/minute over all flow cells. Two report points, the recorded signal shortly before the end of the analyte injection, denoted as binding late (BL) and the recorded signal shortly before the end of the dissociation time, stability late (SL), were used to characterize the kinetic screening performance. Furthermore, the dissociation rate constant kd (1/s) was calculated according to a Langmuir model and the antibody/antigen complex half-life was calculated in minutes according to the formula ln(2)/(60*kd). The molar ratio (MR) was calculated according to the formula MR=(Binding Late (RU))/(Capture level (RU))*(MW(antibody)/(MW(antigen)). In case the sensor was configured with a suitable amount of antibody ligand capture level, each antibody should be able to functionally bind at least to one analyte in solution, which is represented by a molar ratio of MR=1.0. Then, the molar ratio is also an indicator for the valence mode of analyte binding. The maximum valence can be MR=2 for an antibody binding two analytes, one with each Fab valence.
In another embodiment, kinetic rates were determined at 25° C. and 37° C. using the same experimental setup, but using multiple concentration series of each analyte in solution at 0 nM (buffer), 1.2 nM, 3.7 nM, 11.1 nM, 33.3 nM, 100 nM and 300 nM. From the concentration-dependent binding behavior the kinetic data was calculated using the BIAcore evaluation software according to the manufacturer's instructions and a Langmuir 1.1 model with RMAX global.

Row | Molecule | kd | t/2 diss | kd [1/s]
1 | B1 | 0.00303 s⁻¹ and 0.00239 s⁻¹ | 4 min and 5 min | –
2 | B2 | 0.00363 s⁻¹ | 3 min | –
3 | B3 | 0.00522 s⁻¹ | 2 min | –
4 | B4 | 0.0102 s⁻¹ | 1 min | –
5 | B5 | 0.00384 s⁻¹ | 3 min | –
6 | B6 | 0.0033 s⁻¹ | 4 min | –
7 | B7 | 0.00293 s⁻¹ | 4 min | –
8 | B8 | 0.00248 s⁻¹ | 5 min | –
9 | B9 | 0.00104 s⁻¹ | 11 min | –
10 | B10 | – | 5 min | 2.35E−03. 1/s
11 | B11 | 0.00198 s⁻¹ | 6 min | –
12 | B12 | 0.00382 s⁻¹ | 3 min | –
13 | B13 | 0.011 s⁻¹ | 1 min | –
14 | B14 | 0.00301 s⁻¹ | 4 min | –

same assay, conditions: 25 °C; VL17 or VL19 with VH variants

Row | Molecule | kd [s⁻¹] | t/2 diss [min]
15 | B1 | 0.003 | 4
16 | B15 | 0.002 | 6
17 | B11 | 0.002 | 6
18 | B16 | 0.0023 | 5
